Experimental findings from US20260035728A1 (Chugai, published 2026) are described below.

What all share (assay): co-expression of both H chains with the common L chain; cation exchange chromatography (IEX), ratio of peak areas of A-Homo, BiAb and B-Homo; IgG4-type
The target of assay [1] is humanized B26 antibody H chain, IgG4-type w1 (D399K, E357K).
Assay [2] has as its target humanized B26 antibody H chain, IgG4-type w3C (E357K, E356K, S354C).
The target in assay [3] is humanized B26 antibody H chain, IgG4-type w2 (D399K, E356K).
In assay [4] the target is humanized B26 antibody H chain, IgG4-type w3 (E357K, E356K).
Assay [5] deals with humanized B26 antibody H chain, IgG4-type s1C (D399K, S354C).
Assay [6] addresses humanized B26 antibody H chain, IgG4-type w3C2 (E357K, E356K, Y349C).

B1: humanized A69 antibody H chain, IgG4-type w1 (R409D, K370E) (other)
heavy: EVQLVQSGAEVVKPGSSVKVSCTASGYTFSDYYMHWVRQAPGEGLEWMGYINPSSGYTKYNRKFRDRVTITADKSTSTAYMELSSLRSEDTAVYYCARGGLGYYLDYWGEGTTVTVSSASTKGPSVFPLAPCSRSTSESTAALGCLVKDYFPEPVTVSWNSGALTSGVHTFPAVLQSSGLYSLSSVVTVPSSSLGTKTYTCNVDHKPSNTKVDKRVESKYGPPCPPCPAPEFLGGPSVFLFPPKPKDTLMISRTPEVTCVVVDVSQEDPEVQFNWYVDGVEVHNAKTKPREEQFNSTYRVVSVLTVLHQDWLNGKEYKCKVSNKGLPSSIEKTISKAKGQPREPQVYTLPPSQEEMTKNQVSLTCLVEGFYPSDIAVEWESNGQPENNYKTTPPVLDSDGSFFLYSDLTVDKSRWQEGNVFSCSVMHEALHNHYTQKSLSLSLGK
Regarding B1, the “BiAb formation efficiency (%)” value in assay [1] was ≥ 90%.

B2: humanized A69 antibody H chain, IgG4-type w3C (K370E, K439E, Y349C) (other)
heavy: EVQLVQSGAEVVKPGSSVKVSCTASGYTFSDYYMHWVRQAPGEGLEWMGYINPSSGYTKYNRKFRDRVTITADKSTSTAYMELSSLRSEDTAVYYCARGGLGYYLDYWGEGTTVTVSSASTKGPSVFPLAPCSRSTSESTAALGCLVKDYFPEPVTVSWNSGALTSGVHTFPAVLQSSGLYSLSSVVTVPSSSLGTKTYTCNVDHKPSNTKVDKRVESKYGPPCPPCPAPEFLGGPSVFLFPPKPKDTLMISRTPEVTCVVVDVSQEDPEVQFNWYVDGVEVHNAKTKPREEQFNSTYRVVSVLTVLHQDWLNGKEYKCKVSNKGLPSSIEKTISKAKGQPREPQVCTLPPSQEEMTKNQVSLTCLVEGFYPSDIAVEWESNGQPENNYKTTPPVLDSDGSFFLYSRLTVDKSRWQEGNVFSCSVMHEALHNHYTQESLSLSLGK
For B2, in assay [2], the “BiAb formation efficiency (%)” value was ≥ 90%.

B3: humanized A69 antibody H chain, IgG4-type w2 (R409D, K439E) (other)
heavy: EVQLVQSGAEVVKPGSSVKVSCTASGYTFSDYYMHWVRQAPGEGLEWMGYINPSSGYTKYNRKFRDRVTITADKSTSTAYMELSSLRSEDTAVYYCARGGLGYYLDYWGEGTTVTVSSASTKGPSVFPLAPCSRSTSESTAALGCLVKDYFPEPVTVSWNSGALTSGVHTFPAVLQSSGLYSLSSVVTVPSSSLGTKTYTCNVDHKPSNTKVDKRVESKYGPPCPPCPAPEFLGGPSVFLFPPKPKDTLMISRTPEVTCVVVDVSQEDPEVQFNWYVDGVEVHNAKTKPREEQFNSTYRVVSVLTVLHQDWLNGKEYKCKVSNKGLPSSIEKTISKAKGQPREPQVYTLPPSQEEMTKNQVSLTCLVKGFYPSDIAVEWESNGQPENNYKTTPPVLDSDGSFFLYSDLTVDKSRWQEGNVFSCSVMHEALHNHYTQESLSLSLGK
On to B3, for which, in assay [3], the “BiAb formation efficiency (%)” value was ≥ 90%.

B4: humanized A69 antibody H chain, IgG4-type w3 (K370E, K439E) (other)
heavy: EVQLVQSGAEVVKPGSSVKVSCTASGYTFSDYYMHWVRQAPGEGLEWMGYINPSSGYTKYNRKFRDRVTITADKSTSTAYMELSSLRSEDTAVYYCARGGLGYYLDYWGEGTTVTVSSASTKGPSVFPLAPCSRSTSESTAALGCLVKDYFPEPVTVSWNSGALTSGVHTFPAVLQSSGLYSLSSVVTVPSSSLGTKTYTCNVDHKPSNTKVDKRVESKYGPPCPPCPAPEFLGGPSVFLFPPKPKDTLMISRTPEVTCVVVDVSQEDPEVQFNWYVDGVEVHNAKTKPREEQFNSTYRVVSVLTVLHQDWLNGKEYKCKVSNKGLPSSIEKTISKAKGQPREPQVYTLPPSQEEMTKNQVSLTCLVEGFYPSDIAVEWESNGQPENNYKTTPPVLDSDGSFFLYSRLTVDKSRWQEGNVFSCSVMHEALHNHYTQESLSLSLGK
Turning to B4, the “BiAb formation efficiency (%)” value in assay [4] was ≥ 90%.

B5: humanized A69 antibody H chain, IgG4-type s1C (R409D, Y349C) (other)
heavy: EVQLVQSGAEVVKPGSSVKVSCTASGYTFSDYYMHWVRQAPGEGLEWMGYINPSSGYTKYNRKFRDRVTITADKSTSTAYMELSSLRSEDTAVYYCARGGLGYYLDYWGEGTTVTVSSASTKGPSVFPLAPCSRSTSESTAALGCLVKDYFPEPVTVSWNSGALTSGVHTFPAVLQSSGLYSLSSVVTVPSSSLGTKTYTCNVDHKPSNTKVDKRVESKYGPPCPPCPAPEFLGGPSVFLFPPKPKDTLMISRTPEVTCVVVDVSQEDPEVQFNWYVDGVEVHNAKTKPREEQFNSTYRVVSVLTVLHQDWLNGKEYKCKVSNKGLPSSIEKTISKAKGQPREPQVCTLPPSQEEMTKNQVSLTCLVKGFYPSDIAVEWESNGQPENNYKTTPPVLDSDGSFFLYSDLTVDKSRWQEGNVFSCSVMHEALHNHYTQKSLSLSLGK
For the molecule B5, the “BiAb formation efficiency (%)” value in assay [5] was ≥ 90%.

B6: humanized A69 antibody H chain, IgG4-type w3C2 (K370E, K439E, S354C) (other)
heavy: EVQLVQSGAEVVKPGSSVKVSCTASGYTFSDYYMHWVRQAPGEGLEWMGYINPSSGYTKYNRKFRDRVTITADKSTSTAYMELSSLRSEDTAVYYCARGGLGYYLDYWGEGTTVTVSSASTKGPSVFPLAPCSRSTSESTAALGCLVKDYFPEPVTVSWNSGALTSGVHTFPAVLQSSGLYSLSSVVTVPSSSLGTKTYTCNVDHKPSNTKVDKRVESKYGPPCPPCPAPEFLGGPSVFLFPPKPKDTLMISRTPEVTCVVVDVSQEDPEVQFNWYVDGVEVHNAKTKPREEQFNSTYRVVSVLTVLHQDWLNGKEYKCKVSNKGLPSSIEKTISKAKGQPREPQVYTLPPCQEEMTKNQVSLTCLVEGFYPSDIAVEWESNGQPENNYKTTPPVLDSDGSFFLYSRLTVDKSRWQEGNVFSCSVMHEALHNHYTQESLSLSLGK
As to B6, the “BiAb formation efficiency (%)” value in assay [6] is ≥ 90%.
